Where a chain is given by its changes, count along the chain named.
T1: Mouse HARS (mouse, UniProt Q61035 1-509, limits assumed)
T1 construct: also called mouse HRS
T1 sequence: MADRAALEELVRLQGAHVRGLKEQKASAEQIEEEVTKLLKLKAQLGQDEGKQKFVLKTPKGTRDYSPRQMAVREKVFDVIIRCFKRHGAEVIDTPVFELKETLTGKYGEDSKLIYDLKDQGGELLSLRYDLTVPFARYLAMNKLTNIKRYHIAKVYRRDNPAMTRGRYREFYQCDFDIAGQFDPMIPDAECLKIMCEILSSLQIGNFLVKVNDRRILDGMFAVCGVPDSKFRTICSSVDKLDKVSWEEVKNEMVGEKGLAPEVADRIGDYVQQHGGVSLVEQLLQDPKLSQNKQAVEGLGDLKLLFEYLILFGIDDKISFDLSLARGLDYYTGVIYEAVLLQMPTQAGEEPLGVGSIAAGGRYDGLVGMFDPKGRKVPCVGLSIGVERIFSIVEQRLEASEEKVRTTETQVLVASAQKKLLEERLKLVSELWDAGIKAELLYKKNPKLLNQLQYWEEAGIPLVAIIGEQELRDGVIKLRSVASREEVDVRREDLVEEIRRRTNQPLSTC

T2: Human HARS (human, UniProt P12081 1-509, limits assumed)
T2 construct: also called human HRS; human histidyl-tRNA synthetase
T2 sequence: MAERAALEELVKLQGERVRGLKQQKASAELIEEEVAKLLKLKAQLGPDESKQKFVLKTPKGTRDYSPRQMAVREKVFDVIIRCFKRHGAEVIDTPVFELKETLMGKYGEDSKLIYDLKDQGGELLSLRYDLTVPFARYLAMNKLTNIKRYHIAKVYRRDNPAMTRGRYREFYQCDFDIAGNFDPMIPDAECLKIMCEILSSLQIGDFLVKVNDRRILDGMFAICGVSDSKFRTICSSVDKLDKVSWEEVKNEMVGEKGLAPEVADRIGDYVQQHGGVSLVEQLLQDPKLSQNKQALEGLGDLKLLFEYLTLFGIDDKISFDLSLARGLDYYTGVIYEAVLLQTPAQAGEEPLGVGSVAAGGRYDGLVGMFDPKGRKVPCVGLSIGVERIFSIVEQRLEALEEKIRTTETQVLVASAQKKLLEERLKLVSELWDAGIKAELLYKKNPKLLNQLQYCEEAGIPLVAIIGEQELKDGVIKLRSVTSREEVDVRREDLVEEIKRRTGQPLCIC

B1: KL31-241 (antibody, V domains shown)
VH: QVQLVQSGAEVKKPGASVKVSCKASGYTFTDYCIGWIRQAPGQGLEWMGDICPGDAYTNDNEKFKDRATMTADTSTSTAYMELSSLRSEDTAVYYCARGEEQLGLRNAMDYWGQGTSVTVSS
VL: DIVMTQSPDSLAVSLGERATINCQSQSVSTSTYNYMHWYQQKPGQPPKLLIKYASNLESGVPDRFSGSGSGTDFTLTISSLQAEDVATYYCQHSWEIPWTFGGGTKLEIK
notes: Humanized; IgG1m(zf) kappa
B2: KL31-240 (antibody, IgG4, V domains shown)
VH: B1 VH with A56T, S117L
VL: EIVLTQSPATLSLSPGERATLSCQSQSVSTSTYNYMHWYQQKPGQAPRLLIKYASNLESGIPDRFSGSGSGTDFTLTISRLEPEDFATYYCGHSYEIPWTFGGGTKVEIK
notes: Humanized; IgG4 kappa
B3: KL31-513 (antibody, IgG4, V domains shown)
VH: B1 VH with A56T, S117L
VL: B2 VL
notes: Humanized; IgG4-2 kappa
B4: KL31-532 (antibody, V domains shown)
VH: B1 VH with A56T, S117L
VL: B1 VL with Q92G, W95Y, L107V
notes: Humanized; IgG1m(zf) kappa
B5: AB04-425 (antibody, V domains shown)
VH: QVQLVESGGGLVKPGGSLRLSCAASGFTFSDYYMTWIRQAPGKGLEWVSYISGSFRYTNYADKVKGRFTISRDNAKNSLYLQMNSLRDEDTAVYFCARYVYQVVAIGDLWGQGTLVTVSS
VL: DIQMTQSPSSVSASVGDRVTITCRASQGISSWLAWYQQKPGRAPKLLIFAASSLQSGVPSRFSGSGSGTHFTLTISSLQPEDFATYYCQQAESFPYTFGQGTKLEIK
notes: Human; IgG1m(zf) kappa
B6: AB04-439 (antibody, V domains shown)
VH: B5 VH with K63S
VL: B5 VL
notes: Human; IgG1m(zf) kappa
B7: KL31-261 (antibody, V domains shown)
VH: B1 VH with A56V, S117L
VL: B1 VL with L107V
notes: Humanized; IgG1m(zf) kappa
B8: KL31-523 (antibody, V domains shown)
VH: B1 VH with L103V
VL: B1 VL
notes: Humanized; IgG1m(zf) kappa
B9: KL31-131 (antibody, V domains shown)
VH: B1 VH with A56T, S117L
VL: B2 VL with G92Q, Y95W
notes: Humanized; IgG1m(zf) kappa
B10: AB13-259 (IgG1m(zf) kappa) (antibody, V domains shown)
VH: QVQLVESGGGLVKPGGSLRLSCAASGFTFSDYYMSWIRQAPGKGLEWVSYISDKSRYTKYTDSVRGRFTISRDNAKNSLYLQMNSLRAEDTAVYYCARYLYQVIAIADAWGQGTLVTVSS
VL: B5 VL with Y36F, R42K, A50V, S53N, Q55E, H70D
notes: Human
B11: AB13-259 (IgG4-2 kappa) (antibody, V domains shown)
VH: B10 VH
VL: B5 VL with Y36F, R42K, A50V, S53N, Q55E, H70D
notes: Human
B12: AB04-160 (antibody, V domains shown)
VH: B5 VH with K63S
VL: B5 VL with E92K
notes: Human; IgG1m(zf) kappa
B13: AB04-365 (antibody, V domains shown)
VH: B5 VH with R56A, K63S, L109Y
VL: B5 VL with E92K
notes: Human; IgG1m(zf) kappa
B14: AB13-166 (antibody, V domains shown)
VH: B10 VH with D62P
VL: B5 VL with Y36F, R42K, A50V, S53N, Q55E, H70D
notes: Human; IgG1m(zf) kappa
B15: AB04-121 (antibody, V domains shown)
VH: B5 VH with F55N, R56A, N59D, K63S, L109Y
VL: B5 VL with E92K
notes: Human; IgG1m(zf) kappa
B16: AB04-482 (antibody, V domains shown)
VH: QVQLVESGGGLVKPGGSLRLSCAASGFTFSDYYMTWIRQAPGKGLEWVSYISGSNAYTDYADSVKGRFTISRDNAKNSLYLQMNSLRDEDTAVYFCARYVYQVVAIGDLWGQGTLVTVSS
VL: B5 VL with E92K
notes: Human; IgG1m(zf) kappa
B17: AB13-147 (antibody, V domains shown)
VH: B10 VH with K54S, D108K, A109S
VL: B5 VL with Y36F, R42K, A50V, S53N, Q55E, H70D, E92N
notes: Human; IgG1m(zf) kappa
B18: AB04-483 (antibody, V domains shown)
VH: B5 VH with F55N, R56A, K63S, L109Y
VL: B5 VL with E92K
notes: Human; IgG1m(zf) kappa
B19: AB04-411 (antibody, V domains shown)
VH: B5 VH with F55N, R56A, N59D, K63S, I106V
VL: B5 VL with E92K
notes: Human; IgG1m(zf) kappa
B20: AB04-174 (antibody, V domains shown)
VH: B5 VH with F55N, R56A, N59D, K63S, V103T
VL: B5 VL with E92K
notes: Human; IgG1m(zf) kappa
B21: AB04-276 (antibody, V domains shown)
VH: B5 VH with R56A, N59D, K63S, L109Y
VL: B5 VL with E92K
notes: Human; IgG1m(zf) kappa
B22: AB13-227 (antibody, V domains shown)
VH: B10 VH with K54S, D108K, A109S
VL: B5 VL with Y36F, R42K, A50V, S53N, Q55E, H70D
notes: Human; IgG1m(zf) kappa
B23: AB04-151 (antibody, V domains shown)
VH: B5 VH with K63S, L109Y
VL: B5 VL with E92K
notes: Human; IgG1m(zf) kappa
B24: AB04-380 (antibody, V domains shown)
VH: B5 VH with D62P, K63S
VL: B5 VL
notes: Human; IgG1m(zf) kappa
B25: KL31-600 (antibody, human IgG1, V domains shown)
VH: QVQLQQSGAELVRPGSSVRMSCKAVGYTFTDYCIGWIKQRPGHGLEWIGDICPGDAYTNDNEKFKDKATLTADTSSTTAYMQLSSLTSEDSAIYYCARGEEQVGLRNAMDYWGQGTSVTVSS
VL: DIVLTQSPASLAVSLGQRATISCQSQSVSTSTYNYMHWYQQKPGQPPKLLIKYASNLESGVPARFSGSGSGTDFTLNIHPVEEEDTATYYCQHSWEIPWTFGGGTKLEIK
B26: KL31-313 (antibody, IgG2a, V domains shown)
VH: B25 VH
VL: B25 VL
notes: Mouse; IgG2a kappa
B27: KL31-275 (antibody, IgG1, V domains shown)
VH: B25 VH
VL: B25 VL
notes: Mouse; IgG1 kappa

What follows are binders tested against T1, Mouse HARS (assay: SPR (ProteOn); HRS protein immobilized, antibody as analyte).

Kd	Binder
5.1 nM	B1
0.942 nM	B2
1.25 nM	B3
0.37 nM	B4
0.127 nM	B5
0.13 nM	B6

These binders were tested against T2, Human HARS in the same assay as above.

Kd	Binder
1.4 nM	B1
0.104 nM	B2
0.116 nM	B3
0.67 nM	B7
32.5 nM	B8
0.25 nM	B9
0.064 nM	B4
0.01 nM	B5
0.015 nM	B10
0.029 nM	B11
0.06 nM	B12
0.185 nM	B13
< 0.001 nM	B14
0.9 nM	B15
0.26 nM	B16
0.024 nM	B17
0.265 nM	B18
1.9 nM	B19
170 nM	B20
0.048 nM	B6
0.46 nM	B21
< 0.05 nM	B22
0.025 nM	B23
0.026 nM	B24
12.2 nM	B25
277 nM	B26
6.79 nM	B27

— US20180282402A1 (ATYR PHARMA, published 2018)
